Data from paper PMC11024467.

Biological target: IL-2Rα (UniProt P01589)
Experiment: SPR; Biacore, IL-2 receptor proteins immobilised on a CM5 chip; wild-type IL-2 or variant 012 flowed over at stepwise concentrations for 120 s, then blank solution; 1:1 binding fit (steady state affinity for 001 on IL-2Rα)

Sequence of IL-2Rα (P01589 22-272): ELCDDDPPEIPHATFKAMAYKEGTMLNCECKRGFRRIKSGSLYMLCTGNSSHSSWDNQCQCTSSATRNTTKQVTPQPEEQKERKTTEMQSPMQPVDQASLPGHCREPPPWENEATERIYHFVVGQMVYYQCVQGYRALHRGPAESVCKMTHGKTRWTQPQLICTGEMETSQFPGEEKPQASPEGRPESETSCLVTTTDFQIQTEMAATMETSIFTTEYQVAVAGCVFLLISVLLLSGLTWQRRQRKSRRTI

Kd: 47.5 nM
Substance: wild-type IL-2 (001) (ligand)
